Experiments:
[1] = molecular target: Pfs230D1D2 (first two 6-Cys domains of Pfs230), 6xHis (Plasmodium falciparum 3D7, UniProt P68874); assay: crystal structure
Biotinylated Pfs230D1 = Biotinylated Pfs230D1 (Plasmodium falciparum 3D7, UniProt P68874, biotin (site not stated)); assay: BLI
[2] = molecular target: Pfs230 domain 1 (Pfs230D1), wild-type, 6xHis, from Expi293 cells (P. falciparum, UniProt P68874); assay: BLI
[3] = molecular target: Pfs230D1 G605S variant, 6xHis, from Expi293 cells (P. falciparum, UniProt P68874, G605S); assay: BLI
[4] = molecular target: Pfs230D1 G605R variant, 6xHis, from Expi293 cells (P. falciparum, UniProt P68874, G605R); assay: BLI
[5] = molecular target: Pfs230D1 D714N variant, 6xHis, from Expi293 cells (P. falciparum, UniProt P68874); assay: BLI

Binder | binding result [1] | binding result (Biotinylated Pfs230D1) | Kd [2] [nM] | koff [2] [s⁻¹] | kon [2] [M⁻¹ s⁻¹] | Kd [3] [nM] | koff [3] [s⁻¹] | kon [3] [M⁻¹ s⁻¹] | Kd [4] [nM] | koff [4] [s⁻¹] | kon [4] [M⁻¹ s⁻¹] | Kd [5] [nM] | koff [5] [s⁻¹] | kon [5] [M⁻¹ s⁻¹]
230AS-73 scFv (scFv, V domains shown) VH: QVQLQQWGAGLLKPSETLSLTCAVSGASFSGYSWTWIRQSPGKGLEWIGEIDYRGSTNYNPSLKSRVTMSVDTPKNQFSLNLTSLTAADTAIYYCAKGYGGVTLVRGAKINWFDPWGQGTLVTVSS VL: EIVLTQSPGTLSLSPGERATLSCRASQSVTSRYLAWYQQKPGQAPRLLIFGASSRATGIPDRFSGSGSGTDFTLTISRLEPEDFAVYFCQQYAKSPWTFGQGTKVEIK | binds | binds | – | – | – | – | – | – | – | – | – | – | – | –
230AL-37 IgG (antibody, V domains shown) VH: QVQLVESGGGVVQPGGSLRLSCTASGLIFNKYGIYWVRQAPGKGLEWVAFIRYDGTNQFYADSVKGRFTISRDNSKNKVYLQMNSLRAEDTALYYCAKDRGSIIVFDHWGQGTLVTVSS VL: EIVLTQSPATLSLSPGERVTLSCRASQAVGIYLAWYQQKPGQAPRLLIYHVSKRDTGVPDRFSGSGSGTDFTLTISSLEPEDFAVYYCQQHRNWPPITFGQGTRLEIK | – | – | 0.34 | 0.000181 | 538000 | 0.65 | 0.000147 | 214000 | 5.01 | 0.000426 | 85100 | 15 | 0.00422 | 291000
230AL-37 scFv (scFv, V domains shown) VH: QVQLVESGGGVVQPGGSLRLSCTASGLIFNKYGIYWVRQAPGKGLEWVAFIRYDGTNQFYADSVKGRFTISRDNSKNKVYLQMNSLRAEDTALYYCAKDRGSIIVFDHWGQGTLVTVSS VL: EIVLTQSPATLSLSPGERVTLSCRASQAVGIYLAWYQQKPGQAPRLLIYHVSKRDTGVPDRFSGSGSGTDFTLTISSLEPEDFAVYYCQQHRNWPPITFGQGTRLEIK | binds | – | – | – | – | – | – | – | – | – | – | – | – | –

Reference: PMC9989938 (Immunity, 2023)
